This note sets out measurements from US12187779B2 (dated 2025).

For this assay, the target named is T1, HPV 16 E6 peptide on HLA-A*02:01 (human).
T1 peptide: TIHDIILECV
Put plainly: multimer staining.

B1: E6 TCR (TCR, V domains shown)
Valpha: GQQLNQSPQSMFIQEGEDVSMNCTSSSIFNTWLWYKQDPGEGPVLLIALYKAGELTSNGRLTAQFGITRKDSFLNISASIPSDVGIYFCAGHPSSNSGYALNFGKGTSLLVTP
Vbeta: GAGVSQSPRYKVTKRGQDVALRCDPISGHVSLYWYRQALGQGPEFLTYFNYEAQQDKSGLPNDRFSAERPEGSISTLTIQRTEQRDSAMYRCASSSQTGARTDTQYFGPGTRLTVL
Take B1: the binding result is listed as “recognises”.
